Key:
Test in all cases: SPR; Biacore T200; antibody captured on anti-human Fc (CM5 chip); CD30-MBP flowed at 0, 2, 20 nM (T426: 0, 20, 200 nM), contact 90 s, dissociation 300 s; fit to a 1:1 binding mode; rough-level analysis
Conditions in all cases: both partners purified
[1] = target: T1, BpT104-405
T1 construct: T104 Fv, N side; T405 Fv, C side; one Fab of each Fv; knobs-into-holes Fc; source: Expi293 fragments joined by intein-mediated protein trans-splicing, purified (Superdex 200 Increase); copies: + + +

[2] = target: T2, BpT10-405
T2 construct: AC10 Fv, N side; T405 Fv, C side; one Fab of each Fv; knobs-into-holes Fc; source: Expi293 fragments joined by intein-mediated protein trans-splicing, purified (Superdex 200 Increase); copies: + + +

[3] = target: T3, BpT25-405
T3 construct: T25 Fv, N side; T405 Fv, C side; one Fab of each Fv; knobs-into-holes Fc; source: Expi293 fragments joined by intein-mediated protein trans-splicing, purified (Superdex 200 Increase); copies: + + +

[4] = target: T4, BpT427-6
T4 construct: T427 Fv, N side; T6 Fv, C side; one Fab of each Fv; knobs-into-holes Fc; source: Expi293 fragments joined by intein-mediated protein trans-splicing, purified (Superdex 200 Increase); copies: + + +
T4 sequence (chain, as listed by the source, chain 1 of 4): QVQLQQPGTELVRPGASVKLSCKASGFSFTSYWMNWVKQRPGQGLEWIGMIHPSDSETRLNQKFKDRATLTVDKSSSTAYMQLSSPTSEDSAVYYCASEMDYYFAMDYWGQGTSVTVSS
T4 sequence (chain, as listed by the source, chain 2 of 4): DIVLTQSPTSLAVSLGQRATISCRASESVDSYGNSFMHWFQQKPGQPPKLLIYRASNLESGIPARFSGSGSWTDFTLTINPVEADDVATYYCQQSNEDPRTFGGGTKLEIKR
T4 sequence (chain, as listed by the source, chain 3 of 4): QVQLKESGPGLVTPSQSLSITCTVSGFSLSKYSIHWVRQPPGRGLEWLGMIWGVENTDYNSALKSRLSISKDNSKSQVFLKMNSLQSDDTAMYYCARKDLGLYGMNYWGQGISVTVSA
T4 sequence (chain, as listed by the source, chain 4 of 4): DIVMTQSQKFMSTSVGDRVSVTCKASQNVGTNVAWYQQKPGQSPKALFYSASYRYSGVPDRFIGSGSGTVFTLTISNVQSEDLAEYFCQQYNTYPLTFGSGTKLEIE

[5] = target: T5, BpT104-6
T5 construct: T104 Fv, N side; T6 Fv, C side; one Fab of each Fv; knobs-into-holes Fc; source: Expi293 fragments joined by intein-mediated protein trans-splicing, purified (Superdex 200 Increase); copies: + + +
T5 sequence (chain, as listed by the source, chain 1 of 4): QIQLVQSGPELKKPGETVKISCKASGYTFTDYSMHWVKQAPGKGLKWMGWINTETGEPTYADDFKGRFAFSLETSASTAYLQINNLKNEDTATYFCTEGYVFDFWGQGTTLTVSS
T5 sequence (chain, as listed by the source, chain 2 of 4): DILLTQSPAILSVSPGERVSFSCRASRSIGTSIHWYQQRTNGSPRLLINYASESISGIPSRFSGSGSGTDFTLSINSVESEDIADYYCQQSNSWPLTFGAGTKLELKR

[6] = target: T6, BpT10-427
T6 construct: AC10 Fv, N side; T427 Fv, C side; one Fab of each Fv; knobs-into-holes Fc; source: Expi293 fragments joined by intein-mediated protein trans-splicing, purified (Superdex 200 Increase); copies: + + +
T6 sequence (chain, as listed by the source, chain 1 of 4): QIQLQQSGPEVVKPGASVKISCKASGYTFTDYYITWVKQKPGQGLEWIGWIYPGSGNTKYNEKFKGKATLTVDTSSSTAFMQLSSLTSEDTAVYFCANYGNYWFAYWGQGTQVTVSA
T6 sequence (chain, as listed by the source, chain 2 of 4): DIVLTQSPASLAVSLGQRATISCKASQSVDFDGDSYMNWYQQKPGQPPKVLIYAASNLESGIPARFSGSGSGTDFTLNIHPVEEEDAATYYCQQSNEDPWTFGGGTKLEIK

[7] = target: T7, BpT25-6
T7 construct: T25 Fv, N side; T6 Fv, C side; one Fab of each Fv; knobs-into-holes Fc; source: Expi293 fragments joined by intein-mediated protein trans-splicing, purified (Superdex 200 Increase); copies: + + +
T7 sequence (chain, as listed by the source, chain 1 of 4): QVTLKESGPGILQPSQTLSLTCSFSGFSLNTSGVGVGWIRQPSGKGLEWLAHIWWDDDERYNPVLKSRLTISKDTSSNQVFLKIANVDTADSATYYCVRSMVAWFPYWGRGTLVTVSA
T7 sequence (chain, as listed by the source, chain 2 of 4): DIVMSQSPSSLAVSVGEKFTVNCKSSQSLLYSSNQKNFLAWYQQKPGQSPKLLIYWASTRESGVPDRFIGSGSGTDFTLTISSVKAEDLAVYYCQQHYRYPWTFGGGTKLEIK

[8] = target: T8, BpT25-427
T8 construct: T25 Fv, N side; T427 Fv, C side; one Fab of each Fv; knobs-into-holes Fc; source: Expi293 fragments joined by intein-mediated protein trans-splicing, purified (Superdex 200 Increase); copies: + + +

[9] = target: T9, BpT105-107
T9 construct: T105 Fv, N side; T107 Fv, C side; one Fab of each Fv; knobs-into-holes Fc; source: Expi293 fragments joined by intein-mediated protein trans-splicing, purified (Superdex 200 Increase); copies: + + +
T9 sequence (chain, as listed by the source, chain 1 of 4): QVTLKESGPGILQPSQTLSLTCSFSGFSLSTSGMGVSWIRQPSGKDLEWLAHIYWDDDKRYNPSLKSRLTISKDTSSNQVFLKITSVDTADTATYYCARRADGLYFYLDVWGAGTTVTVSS
T9 sequence (chain, as listed by the source, chain 2 of 4): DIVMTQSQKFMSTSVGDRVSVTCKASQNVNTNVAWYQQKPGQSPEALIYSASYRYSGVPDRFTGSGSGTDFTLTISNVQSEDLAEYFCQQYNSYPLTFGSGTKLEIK
T9 sequence (chain, as listed by the source, chain 3 of 4): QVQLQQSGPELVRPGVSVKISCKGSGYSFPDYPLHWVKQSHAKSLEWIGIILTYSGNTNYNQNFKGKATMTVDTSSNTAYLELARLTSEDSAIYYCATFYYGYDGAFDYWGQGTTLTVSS
T9 sequence (chain, as listed by the source, chain 4 of 4): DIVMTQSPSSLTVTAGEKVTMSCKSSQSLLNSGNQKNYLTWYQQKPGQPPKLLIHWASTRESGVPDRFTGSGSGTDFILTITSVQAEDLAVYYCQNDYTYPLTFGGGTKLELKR

B1: Maltose-binding protein-fused CD30 (domain or fragment)
chain: FPQDRPFEDTCHGNPSHYYDKAVRRCCYRCPMGLFPTQQCPQRPTDCRKQCEPDYYLDEADRCTACVTCSRDDLVEKTPCAWNSSRVCECRPGMFCSTSAVNSCARCFFHSVCPAGMIVKFPGTAQKNTVCEPASPGVSPACASPENCKEPSSGTIPQAKPTPVSPATSSASTMPVRGGTRLAQEAASKLTRAPDSPSSVGRPSSDPGLSPTQPCPEGSGDCRKQCEPDYYLDEAGRCTACVSCSRDDLVEKTPCAWNSSRTCECRPGMICATSATNSCARCVPYPICAAETVTKPQDMAEKDTTFEAPPLGTQPDCN
modifications: Construct 1-336 includes signal peptide 1-18, taken as cleaved on secretion; C-terminal MBP carrier and His tag left out; disulfide-bonded, likely glycosylated (Expi293)
- Kd [1]: 48 nM
- Kd [2]: 0.63 nM
- Kd [3]: 0.91 nM
- Kd [4]: 0.26 nM
- Kd [5]: 0.59 nM
- Kd [6]: 0.58 nM
- Kd [7]: 0.46 nM
- Kd [8]: 0.57 nM
- Kd [9]: 0.26 nM

— publication PMC11826918, “Generation of antagonistic biparatopic anti-CD30 antibody from an agonistic antibody by precise epitope determination and utilization of structural characteristics of CD30 molecule” (Antibody Therapeutics, 2025)
